T1: extracellular domain of hIFNgR2 (human, UniProt P38484 28-247)
T1 construct: also called hIFNgR2 ECD; hIFNgR2-ECD
T1 sequence: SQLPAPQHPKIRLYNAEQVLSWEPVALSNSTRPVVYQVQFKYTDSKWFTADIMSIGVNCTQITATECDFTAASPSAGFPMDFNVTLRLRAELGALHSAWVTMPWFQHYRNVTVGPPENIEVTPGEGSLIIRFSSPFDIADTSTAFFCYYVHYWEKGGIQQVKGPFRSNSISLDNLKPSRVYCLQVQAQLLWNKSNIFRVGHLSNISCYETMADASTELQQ

T2: extracellular domain of mIFNgR2 (mouse)
T2 construct: also called mIFNgR2 ECD; mouse IFNgR2 extracellular domain
T2 chain: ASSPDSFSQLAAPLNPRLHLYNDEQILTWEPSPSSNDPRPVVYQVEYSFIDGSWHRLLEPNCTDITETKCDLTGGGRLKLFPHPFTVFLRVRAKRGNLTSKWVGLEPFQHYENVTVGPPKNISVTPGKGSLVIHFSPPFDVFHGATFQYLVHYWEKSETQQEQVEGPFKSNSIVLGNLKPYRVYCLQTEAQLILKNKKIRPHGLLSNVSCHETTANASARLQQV

B1: DR930 (VHH)
VHH: EVQLVESGGGLVQAGGSLRLSCTVSGRTFSSYAVAWFRQAPGNVRELAAALSRGGGSAYYTDSVKGRFTISRDNAKNTVYLQMNSLKPEDTAVYYCAARNYDGTYYQENQYNYWGQGTQVTVSS
B2: DR931 (VHH)
VHH: QVQLVESGGGLVQAGGSLLLSCAASGRTFSTYAMGWFRQAPGKERMFVAAISVNGGSTYYADSVTGRFTISRDNAKNTMYLQMNNLKPGDTAVYYCAARRPYPGSDFLTWASYDYRGQGTLVTVSS
B3: DR932 (VHH)
VHH: QVQLVESGGGLVQAGGFLRLSCAASGRTFSYTTIGWFRQAPGKEREFVAVISAGGGSRDYADALKGRFTISRDNAKKMVYLQMNNLKPEDTAVYYCAVRRNTDTYTTTGDYDYWGQGTQVTVSS
B4: DR933 (VHH)
VHH: QVQLVESGGGLVQPGDSLRLSCVASGGTISSLAMGWFRQAPGKEREFVAAISWSGRSTYYVDSVKGRFTISTDNAKNTVYLQMNSLKPEDTAVYYCVAGEDGHSEYDYWGQGTQVTVSS
B5: DR934 (VHH)
VHH: QVQLVESGGGLVQAGGSLRLSCAASGRSFANYAMGWFRQAPGKERETVAAISRGGGSTWYADSVKGRFTISKDNAKNTVYLQMNSLKPEDTAIYYCAARSYSGSYTYSFGEYDYWGQGTQVTVSS
B6: DR935 (VHH)
VHH: QVQLVESGGGLVQAGGSLRLSCAASGRAFSTYALGWFRQAPGKEREFIAAISRGGGSTDYADSVKGRFTISRDNAKSTVYLQMNSLKPEDTAVYYCAARSYSSSYYYSQYEYDYWGQGTQVTVSS

molecular target: T1, extracellular domain of hIFNgR2; assay: flow cytometry

Binder	binding result
B1	binds
B2	binds
B3	binds
B4	binds
B5	binds
B6	binds

Molecular target: T2, extracellular domain of mIFNgR2
Assay: flow cytometry, cross-reactivity

Binder	binding result
B1	binds
B2	binds
B3	binds
B4	binds
B5	binds
B6	binds
